The values below come from patent publication US6391571.

Test [1] deals with monobiotinylated Fab' antibody fragment. Briefly: BIAcore SPR, mutein immobilized on CM5 chip, Fab' at 12.5-400 nmol/l, 25 C.
The target is the same in test [2]. Nature of the test: BIAcore SPR, mutein immobilized on CM5 chip, Fab' at 12.5-400 nmol/l, 25 C; second of 2 product lots.
The target is the same in test [3]. Briefly: BIAcore SPR, mutein immobilized on CM5 chip, Fab' at 12.5-400 nmol/l, 25 C; first of 2 product lots.
For test [4] the target is unchanged. Briefly: BIAcore SPR, mutein-thermo-BSA conjugate immobilized on CM5 chip, Fab' at 12.5-400 nmol/l, 25 C.
Test [5] has the same target. Nature of the test: BIAcore SPR, streptavidin immobilized on CM5 chip, Fab' at 12.5-400 nmol/l, 25 C.

core streptavidin (wild type streptavidin), sequence (chain): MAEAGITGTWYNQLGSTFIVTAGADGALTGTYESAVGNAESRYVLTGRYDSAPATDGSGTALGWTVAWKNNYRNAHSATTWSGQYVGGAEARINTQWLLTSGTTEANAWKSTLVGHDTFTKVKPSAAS
SA-Ser27Arg/Ser45Arg TBSA conjugate, sequence (P02769 25-607, change not shown): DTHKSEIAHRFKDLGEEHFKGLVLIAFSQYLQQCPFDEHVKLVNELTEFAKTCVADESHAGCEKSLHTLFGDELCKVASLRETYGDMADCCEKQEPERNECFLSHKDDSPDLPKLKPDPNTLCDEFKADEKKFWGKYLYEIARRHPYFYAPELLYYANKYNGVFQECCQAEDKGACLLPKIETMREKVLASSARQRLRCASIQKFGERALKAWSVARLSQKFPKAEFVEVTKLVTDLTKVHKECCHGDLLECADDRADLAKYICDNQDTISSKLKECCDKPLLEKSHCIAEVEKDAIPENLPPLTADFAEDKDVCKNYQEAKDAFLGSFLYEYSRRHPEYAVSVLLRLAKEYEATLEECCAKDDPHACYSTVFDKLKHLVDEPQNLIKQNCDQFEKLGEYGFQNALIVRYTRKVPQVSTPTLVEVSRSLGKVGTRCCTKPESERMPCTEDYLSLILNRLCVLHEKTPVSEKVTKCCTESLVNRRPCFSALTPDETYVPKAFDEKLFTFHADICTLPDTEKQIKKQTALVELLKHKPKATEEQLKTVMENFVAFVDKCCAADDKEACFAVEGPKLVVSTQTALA

SA-Leu25Trp/Ser45Arg: in test [1], the Ka was determined as 3.6e+08 M⁻¹, the off-rate (koff) came to 0.00022 s⁻¹, the on-rate constant (kon) stood at 79000 M⁻¹ s⁻¹ and the t/2 diss amounted to 51.8 min.

In test [1], SA-Leu25Trp/Ser45Trp/Leu110Trp registered a Ka of 7e+07 M⁻¹, a koff of 0.00087 s⁻¹, a kon of 49000 M⁻¹ s⁻¹ and a t/2 diss of 13.4 min.

For SA-Leu25Trp/Ser45Tyr/Leu110Trp, in test [1], the Ka turned out to be 4.6e+07 M⁻¹, the koff came to 0.0013 s⁻¹, the kon came to 54000 M⁻¹ s⁻¹ and the t/2 diss is 8.7 min.

In test [2], SA-Ser27Arg/Ser45Arg showed a Ka of 2.1e+07 M⁻¹, an off-rate (koff) of 0.0041 s⁻¹, a kon of 85000 M⁻¹ s⁻¹ and a t/2 diss of 2.8 min. In test [3], this substance came in with a Ka of 4.2e+07 M⁻¹, a kon of 130000 M⁻¹ s⁻¹ and a t/2 diss of 3.7 min.

In test [4], “SA-Ser27Arg/Ser45Arg TBSA conjugate (from UniProt P02769 25-607)” came in with a Ka of 3.3e+07 M⁻¹, a dissociation rate constant (koff) of 0.003 s⁻¹, a kon of 100000 M⁻¹ s⁻¹ and a t/2 diss of 3.9 min.

In test [1], SA-Ser27Arg/Ser45Arg/Leu110Trp came in with a Ka of 7.7e+06 M⁻¹, a dissociation rate constant (koff) of 0.0059 s⁻¹, a kon of 45000 M⁻¹ s⁻¹ and a t/2 diss of 2 min.

In test [1], SA-Ser27Arg/Ser45Arg/Trp120Ala yielded a Ka of 2e+07 M⁻¹, a dissociation rate constant (koff) of 0.0052 s⁻¹, a kon of 100000 M⁻¹ s⁻¹ and a t/2 diss of 2.2 min.

In the case of SA-Ser45Trp/Leu110Trp, in test [1], the Ka was 6.1e+08 M⁻¹, the koff was determined as 0.00033 s⁻¹, the on-rate (kon) was 140000 M⁻¹ s⁻¹ and the t/2 diss was determined as 40.8 min.

Take SA-Ser45Tyr/Leu110Trp: in test [1], the Ka is 2.7e+08 M⁻¹, the off-rate constant (koff) stood at 0.00054 s⁻¹, the kon was found to be 130000 M⁻¹ s⁻¹ and the t/2 diss was 22.6 min.

In the case of SA-Trp120Ala, in test [1], the Ka came out at 2.9e+08 M⁻¹, the off-rate constant (koff) was 0.00023 s⁻¹, the on-rate constant (kon) was 67000 M⁻¹ s⁻¹ and the t/2 diss worked out at 49.4 min.

As for “core streptavidin (wild type streptavidin)”, in test [5], the Ka was over 1e+10 M⁻¹, the off-rate (koff) is under 1e-05 s⁻¹, the kon was 220000 M⁻¹ s⁻¹ and the t/2 diss is over 20 h.
